Experimental data: patent US20040047873A1 (published 2004)

T1: CD40 on murine splenic B cells (mouse, UniProt P27512 20-289)
T1 sequence (looked up): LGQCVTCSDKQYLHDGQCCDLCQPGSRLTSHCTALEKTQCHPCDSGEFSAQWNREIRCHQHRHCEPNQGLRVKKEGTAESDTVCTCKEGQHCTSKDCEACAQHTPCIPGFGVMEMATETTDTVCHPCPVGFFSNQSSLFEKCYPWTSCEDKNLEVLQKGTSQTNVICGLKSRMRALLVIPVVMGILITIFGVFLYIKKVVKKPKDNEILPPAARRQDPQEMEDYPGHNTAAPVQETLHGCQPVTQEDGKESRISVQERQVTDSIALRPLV

B1: murine CD40-human Fc fusion protein (Fc fusion, mouse, UniProt P27512 20-193, looked up)
chain: LGQCVTCSDKQYLHDGQCCDLCQPGSRLTSHCTALEKTQCHPCDSGEFSAQWNREIRCHQHRHCEPNQGLRVKKEGTAESDTVCTCKEGQHCTSKDCEACAQHTPCIPGFGVMEMATETTDTVCHPCPVGFFSNQSSLFEKCYPWTSCEDKNLEVLQKGTSQTNVICGLKSRMR
notes: captured on immobilised anti-human Fc mAb in the BIAcore assay; also called CD40-Fc; not shown: human immunoglobulin Fc
B2: soluble trimeric CD154 (tCD154) (ligand, human;mouse, UniProt P35247 223-257, looked up)
chain: DVASLRQQVEALQGQVQHLQAAFSQYKKVELFPNGLDKVEEEVNLHEDFVFIKKLKRCNKGEGSLSLLNCEEMRRQFEDLVKDITLNKEEKKENSFEMQRGDEDPQIAAHVVSEANSNAASVLQWAKKGYYTMKSNLVMLENGKQLTVKREGLYYVYTQVTFCSNREPSSQRPFIVGLWLKPSSGSERILLKAANTHSSSQLCEQQSVHLGGVFELQAGASVFVNVTEASQVIHRVGFSSFGLLKL
notes: range 223-257;range 50-260; Expressed in CHO-K1 with the rat CD4 leader (secretion signal, left out here); Non-covalent homotrimer, apparent mass ~100 kDa by size exclusion; also called trimeric form of CD154

Experiments:
[1] = molecular target: T1, CD40 on murine splenic B cells; assay: cell-based or functional assay
[2] = molecular target: B1; assay: BIAcore; dissociation half-time from captured CD40-Fc
Protocol: (§1) The lower activity of tCD154 when compared with SP-D-CD154 could be the result of its relatively low affinity for CD40. To address this question the inventors analysed the affinity and kinetics of the interaction between tCD154 or SP-D-CD154 and CD40 using the BIAcore™ biosensor, which measures protein-protein interaction in real time. A murine anti-human Fc mAb was covalently coupled to the dextran matrix, and either tCD154 or SPD-CD154 was then injected over this mAb in order to determine the level of non-specific binding. Specific binding was determined by first injecting murine CD40-human Fc fusion protein which bound to the immobilised anti-human Fc mAb, and then injecting (31.3-250 nM) tCD154 or SPD-CD154 (FIG. 6). Co-injection of the anti-CD154 mAb MR1 and tCD154 or SP-D-CD154 completely abolished the binding of tCD154 or SP-D-CD154 to CD40 (data not shown). […] SP-D-CD154 can potentially bind to twelve CD40 molecules, compared to three molecules with tCD154 [9], implying that the extent of receptor oligomerisation may influence the signals generated by CD40. Within the X-shaped SP-D molecule, the adjacent arms are separated by a distance of either ˜20 nm or ˜90 nm (FIG. 1A). Thus if all four arms of SP-D-CD154 engage cell surface-expressed CD40, two clusters are likely to form each with six closely associated CD40 molecules.

[3] = molecular target: B1; assay: BIAcore; CD40-Fc captured on anti-human Fc mAb, SP-D-CD154 injected
[4] = molecular target: B1; assay: BIAcore; CD40-Fc captured on anti-human Fc mAb, SP-D-CD154 injected at 31.3-250 nM; apparent affinity
[5] = molecular target: B2; assay: BIAcore; CD40-Fc captured on anti-human Fc mAb, tCD154 injected at 31.3-250 nM; apparent affinity
Protocol: as §1

[6] = molecular target: B2; assay: BIAcore; CD40-Fc captured on anti-human Fc mAb, tCD154 injected
Protocol: as §1

Row | Molecule | fold increase in the level of CD86 on B cells against untreated cells (5 nM, 24 h) [1] | fold increase in the level of ICAM-1 on B cells against untreated cells (5 nM, 24 h) [1] | in vitro B cell proliferation assay [1] | mean forward scatter of B cells (size and activation status) [1] | proliferation of murine splenic B cells ([3H] thymidine incorporation) [1] | t1/2 [2] | koff [3] | Kd [4] | Kd [5] | koff [6]
1 | SP-D-CD154 dodecameric fusion protein between lung surfactant protein-D and CD154 (from UniProt P35247 1-257; P27548 50-260) (ligand) | 3.6 fold | 3.8 fold | 2 µg/mL | 409 | 8 fold | 1.38 h | 0.00014 s⁻¹ | 1.3 nM |  | 
2 | B1 |  |  |  |  |  |  |  |  | 2 nM | 0.00018 s⁻¹
3 | B2 | 1.4 fold | 2 fold |  |  |  | ~1.07 h |  |  |  | 
